# Measurements: publication PMC6610696 (Structure (London, England : 1993), 2019)
# Like-named read-outs stand apart in the source and are kept apart here. Square brackets hold non-standard residues; d marks the D form. Ends that are not written are not given here. pS = N[C@@H](COP(=O)(O)O)C(=O)O
# B1: Nrd1 CID D70A mutant (domain or fragment, S. cerevisiae, UniProt P53617 6-151, looked up)
# chain: DFQNFVATLESFKDLKSGISGSRIKKLTTYALDHIDIESKIISLIIDYSRLCPDSHKLGSLYIIASIGRAYLDETRSNSNSSSNKPGTCAHAINTLGEVIQELLSDAIAKSNQDHKEKIRMLLDIWDRSGLFQKSYLNAIRSKCFA
# B2: ScSen1-NIM2-FAM peptide (peptide)
# peptide: DDEDDYTPSISD
# modifications: also: 5-FAM label: N-terminal per methods, C-terminal per resources table
# B3: Nrd1 CID D70N mutant (domain or fragment, S. cerevisiae, UniProt P53617 6-151, looked up)
# chain: DFQNFVATLESFKDLKSGISGSRIKKLTTYALDHIDIESKIISLIIDYSRLCPDSHKLGSLYIINSIGRAYLDETRSNSNSSSNKPGTCAHAINTLGEVIQELLSDAIAKSNQDHKEKIRMLLDIWDRSGLFQKSYLNAIRSKCFA
# B4: Nrd1 CID Y67A mutant (domain or fragment, S. cerevisiae, UniProt P53617 6-151, looked up)
# chain: DFQNFVATLESFKDLKSGISGSRIKKLTTYALDHIDIESKIISLIIDYSRLCPDSHKLGSLAIIDSIGRAYLDETRSNSNSSSNKPGTCAHAINTLGEVIQELLSDAIAKSNQDHKEKIRMLLDIWDRSGLFQKSYLNAIRSKCFA
# Experiments:
# Assay in all cases: fluorescence polarisation
# [1] = molecular target: T1, S. cerevisiae Nrd1 CID (residues 6-151), N-terminal hexa-histidine tag (S. cerevisiae, UniProt P53617 6-151)
# T1 sequence (looked up): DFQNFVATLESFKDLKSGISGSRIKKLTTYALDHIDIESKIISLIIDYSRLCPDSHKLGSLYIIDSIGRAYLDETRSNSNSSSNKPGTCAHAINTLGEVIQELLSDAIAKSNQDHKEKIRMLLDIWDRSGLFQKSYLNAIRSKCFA
# ScSen1-NIM2-FAM peptide = molecular target: B2
# [2] = molecular target: T1, S. cerevisiae Nrd1 CID (residues …); remark: listed apart in the source
binder,measurement,setting,value
DDEDDYTPSISD [ScSen1-NIM2 peptide],binding result,[1],binds
DDEDDYTASISD [ScSen1-NIM2-P2060A peptide],fold increase in Kd against wild-type NIM2,[1],~20 fold
DDENDYTPSISD [ScSen1-NIM2-D2056N peptide],fold increase in Kd against wild-type NIM2,[1],13 fold
DDEDDYTVSISD [ScSen1-NIM2-P2060V peptide],fold increase in Kd against wild-type NIM2,[1],~20 fold
EAEDPYDLNPHPQ [ScSen1-NIM3 peptide],Kd,[1],38 µM
EQEDDYKLPMEYIT [ScSen1-NIM1 peptide],Kd,[1],7.6 µM
B1,fold increase in Kd for NIM2 against wild-type CID,ScSen1-NIM2-FAM peptide,30 fold
B2,Kd,[2],0.56 µM
B3,fold increase in Kd for NIM2 against wild-type CID,ScSen1-NIM2-FAM peptide,3 fold
B4,fold increase in Kd for NIM2 against wild-type CID,ScSen1-NIM2-FAM peptide,90 fold
SPT[pS]PSYSPT[pS]PS [Pol II Ser5P CTD peptide],Kd,[1],216 µM
